B1: E3 ubiquitin-protein ligase DZIP3 (Homo sapiens), Q86Y13 (parent)
chain: MDSLPDEFFVRHPAVEDQRKEETENKLEKSSGQLNKQENDIPTDLVPVNLLLEVKKLLNAINTLPKGVVPHIKKFLQEDFSFQTMQREVAANSQNGEEIVPALTLRFLITQLEAALRNIQAGNYTAHQINIGYYLTLLFLYGVALTERGKKEDYTEAENKFLVMKMMIQENEICENFMSLVYFGRGLLRCAQKRYNGGLLEFHKSLQEIGDKNDHWFDIDPTEDEDLPTTFKDLLNNFIKTTESNIMKQTICSYLDCERSCEADILKNTSYKGFFQLMCSKSCCVYFHKICWKKFKNLKYPGENDQSFSGKKCLKEGCTGDMVRMLQCDVPGIVKILFEVVRKDEYITIENLGASYRKLISLKITDTDIRPKISLKFNTKDEMPIFKLDYNYFYHLLHIIIISGTDIVRQIFDEAMPPPLLKKELLIHKNVLESYYNHLWTNHPLGGSWHLLYPPNKELPQSKQFDLCLLLALIKHLNVFPAPKKGWNMEPPSSDISKSADILRLCKYRDILLSEILMNGLTESQFNSIWKKVSDILLRLGMMQEDIDKVKENPIENISLDYHQLSVYLGIPVPEIIQRMLSCYQQGIALQSITGSQRIEIEELQNEEEELSPPLMEYNINVKSHPEIQFAEINKDGTSIPSESSTESLKDLQEVKSKQRKKKKTKNKKNKDSKEDQVPYVVEKEEQLRKEQANPHSVSRLIKDDASDVQEDSAMEDKFYSLDELHILDMIEQGSAGKVTTDYGETEKERLARQRQLYKLHYQCEDFKRQLRTVTFRWQENQMQIKKKDKIIASLNQQVAFGINKVSKLQRQIHAKDNEIKNLKEQLSMKRSQWEMEKHNLESTMKTYVSKLNAETSRALTAEVYFLQCRRDFGLLHLEQTEKECLNQLARVTHMAASNLESLQLKAAVDSWNAIVADVRNKIAFLRTQYNEQINKVKQGFALSTLPPVQLPPPPPSPEILMQQFLGRPLVKESFFRPILTVPQMPAVCPGVVSATGQPRAPLMTGIAWALPAPVGDAVPPSAGLRSDPSIMNWERITDRLKTAFPQQTRKELTDFLRKLKDAYGKSLSELTFDEIVCKISQFIDPKKSQSQGKSVSNVNCVSPSHSPSQPDAAQPPKPAWRPLTSQGPATWEGASNPDEEEEEEEPCVICHENLSPENLSVLPCAHKFHAQCIRPWLMQQGTCPTCRLHVLLPEEFPGHPSRQLPKI
partner: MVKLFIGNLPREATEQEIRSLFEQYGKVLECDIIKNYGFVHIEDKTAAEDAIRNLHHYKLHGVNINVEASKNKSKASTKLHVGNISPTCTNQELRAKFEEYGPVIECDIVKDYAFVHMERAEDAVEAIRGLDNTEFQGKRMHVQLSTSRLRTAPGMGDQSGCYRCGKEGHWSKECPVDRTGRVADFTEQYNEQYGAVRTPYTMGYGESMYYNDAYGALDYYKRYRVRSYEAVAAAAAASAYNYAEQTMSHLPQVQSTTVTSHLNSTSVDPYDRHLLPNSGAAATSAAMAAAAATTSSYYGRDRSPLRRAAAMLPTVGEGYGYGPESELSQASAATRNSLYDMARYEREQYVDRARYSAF
B2: E3 ubiquitin-protein ligase LNX (Homo sapiens), Q8TBB1 (parent)
chain: MNQPESANDPEPLCAVCGQAHSLEENHFYSYPEEVDDDLICHICLQALLDPLDTPCGHTYCTLCLTNFLVEKDFCPMDRKPLVLQHCKKSSILVNKLLNKLLVTCPFREHCTQVLQRCDLEHHFQTSCKGASHYGLTKDRKRRSQDGCPDGCASLTATAPSPEVSAAATISLMTDEPGLDNPAYVSSAEDGQPAISPVDSGRSNRTRARPFERSTIRSRSFKKINRALSVLRRTKSGSAVANHADQGRENSENTTAPEVFPRLYHLIPDGEITSIKINRVDPSESLSIRLVGGSETPLVHIIIQHIYRDGVIARDGRLLPGDIILKVNGMDISNVPHNYAVRLLRQPCQVLWLTVMREQKFRSRNNGQAPDAYRPRDDSFHVILNKSSPEEQLGIKLVRKVDEPGVFIFNVLDGGVAYRHGQLEENDRVLAINGHDLRYGSPESAAHLIQASERRVHLVVSRQVRQRSPDIFQEAGWNSNGSWSPGPGERSNTPKPLHPTITCHEKVVNIQKDPGESLGMTVAGGASHREWDLPIYVISVEPGGVISRDGRIKTGDILLNVDGVELTEVSRSEAVALLKRTSSSIVLKALEVKEYEPQEDCSSPAALDSNHNMAPPSDWSPSWVMWLELPRCLYNCKDIVLRRNTAGSLGFCIVGGYEEYNGNKPFFIKSIVEGTPAYNDGRIRCGDILLAVNGRSTSGMIHACLARLLKELKGRITLTIVSWPGTFL
partner: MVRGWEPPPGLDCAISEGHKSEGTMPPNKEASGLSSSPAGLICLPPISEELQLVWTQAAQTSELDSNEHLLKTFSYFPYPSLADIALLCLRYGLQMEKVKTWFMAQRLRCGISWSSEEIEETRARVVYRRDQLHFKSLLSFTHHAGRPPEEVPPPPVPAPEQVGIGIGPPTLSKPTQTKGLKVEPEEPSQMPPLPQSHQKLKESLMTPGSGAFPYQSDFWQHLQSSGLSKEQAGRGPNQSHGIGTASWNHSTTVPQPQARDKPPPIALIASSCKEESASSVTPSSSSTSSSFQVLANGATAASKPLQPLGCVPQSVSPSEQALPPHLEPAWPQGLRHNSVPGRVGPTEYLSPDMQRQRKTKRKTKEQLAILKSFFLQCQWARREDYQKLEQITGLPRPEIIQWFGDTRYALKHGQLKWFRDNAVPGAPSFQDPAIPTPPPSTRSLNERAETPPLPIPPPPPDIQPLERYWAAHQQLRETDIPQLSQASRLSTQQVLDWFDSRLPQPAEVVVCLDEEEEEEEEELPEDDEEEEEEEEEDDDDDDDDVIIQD
B3: Atypical chemokine receptor 2 (Homo sapiens), O00590 (parent)
chain: MAATASPQPLATEDADSENSSFYYYDYLDEVAFMLCRKDAVVSFGKVFLPVFYSLIFVLGLSGNLLLLMVLLRYVPRRRMVEIYLLNLAISNLLFLVTLPFWGISVAWHWVFGSFLCKMVSTLYTINFYSGIFFISCMSLDKYLEIVHAQPYHRLRTRAKSLLLATIVWAVSLAVSIPDMVFVQTHENPKGVWNCHADFGGHGTIWKLFLRFQQNLLGFLLPLLAMIFFYSRIGCVLVRLRPAGQGRALKIAAALVVAFFVLWFPYNLTLFLHTLLDLQVFGNCEVSQHLDYALQVTESIAFLHCCFSPILYAFSSHRFRQYLKAFLAAVLGWHLAPGTAQASLSSCSESSILTAQEEMTGMNDLGERQSENYPNKEDVGNKSA
B4: Angio-associated migratory cell protein (Homo sapiens), Q13685 (parent)
chain: MESESESGAAADTPPLETLSFHGDEEIIEVVELDPGPPDPDDLAQEMEDVDFEEEEEEEGNEEGWVLEPQEGVVGSMEGPDDSEVTFALHSASVFCVSLDPKTNTLAVTGGEDDKAFVWRLSDGELLFECAGHKDSVTCAGFSHDSTLVATGDMSGLLKVWQVDTKEEVWSFEAGDLEWMEWHPRAPVLLAGTADGNTWMWKVPNGDCKTFQGPNCPATCGRVLPDGKRAVVGYEDGTIRIWDLKQGSPIHVLKGTEGHQGPLTCVAANQDGSLILTGSVDCQAKLVSATTGKVVGVFRPETVASQPSLGEGEESESNSVESLGFCSVMPLAAVGYLDGTLAIYDLATQTLRHQCQHQSGIVQLLWEAGTAVVYTCSLDGIVRLWDARTGRLLTDYRGHTAEILDFALSKDASLVVTTSGDHKAKVFCVQRPDR
partner: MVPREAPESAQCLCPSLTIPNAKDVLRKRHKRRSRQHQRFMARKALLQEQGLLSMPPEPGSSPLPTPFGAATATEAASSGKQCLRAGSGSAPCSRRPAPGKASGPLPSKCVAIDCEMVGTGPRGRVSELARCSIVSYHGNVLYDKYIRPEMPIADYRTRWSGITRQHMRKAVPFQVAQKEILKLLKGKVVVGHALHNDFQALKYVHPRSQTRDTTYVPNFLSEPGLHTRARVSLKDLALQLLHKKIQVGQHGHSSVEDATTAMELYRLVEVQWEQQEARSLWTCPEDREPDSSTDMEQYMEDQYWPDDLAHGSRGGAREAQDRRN
B5: Abl interactor 2 (Homo sapiens), Q9NYB9 (parent)
chain: MAELQMLLEEEIPGGRRALFDSYTNLERVADYCENNYIQSADKQRALEETKAYTTQSLASVAYLINTLANNVLQMLDIQASQLRRMESSINHISQTVDIHKEKVARREIGILTTNKNTSRTHKIIAPANLERPVRYIRKPIDYTILDDIGHGVKWLLRFKVSTQNMKMGGLPRTTPPTQKPPSPPMSGKGTLGRHSPYRTLEPVRPPVVPNDYVPSPTRNMAPSQQSPVRTASVNQRNRTYSSSGSSGGSHPSSRSSSRENSGSGSVGVPIAVPTPSPPSVFPAPAGSAGTPPLPATSASAPAPLVPATVPSSTAPNAAAGGAPNLADGFTSPTPPVVSSTPPTGHPVQFYSMNRPASRHTPPTIGGSLPYRRPPSITSQTSLQNQMNGGPFYSQNPVSDTPPPPPPVEEPVFDESPPPPPPPEDYEEEEAAVVEYSDPYAEEDPPWAPRSYLEKVVAIYDYTKDKEDELSFQEGAIIYVIKKNDDGWYEGVMNGVTGLFPGNYVESIMHYSE
partner: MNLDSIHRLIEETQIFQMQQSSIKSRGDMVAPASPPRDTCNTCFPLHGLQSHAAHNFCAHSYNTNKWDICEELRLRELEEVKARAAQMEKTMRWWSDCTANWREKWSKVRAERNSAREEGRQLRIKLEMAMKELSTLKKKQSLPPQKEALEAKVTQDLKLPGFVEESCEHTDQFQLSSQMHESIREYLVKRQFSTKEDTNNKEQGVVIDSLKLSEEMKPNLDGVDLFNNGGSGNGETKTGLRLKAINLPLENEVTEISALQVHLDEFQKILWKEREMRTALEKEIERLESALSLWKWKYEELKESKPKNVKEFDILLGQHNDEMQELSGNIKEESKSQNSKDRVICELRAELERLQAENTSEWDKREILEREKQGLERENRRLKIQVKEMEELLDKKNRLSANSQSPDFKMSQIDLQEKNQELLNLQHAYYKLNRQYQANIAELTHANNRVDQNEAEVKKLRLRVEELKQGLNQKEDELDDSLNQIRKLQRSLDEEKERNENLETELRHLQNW

Variants of: B1
Conditions: with rbm4b_human RBM4B

effect of a mutation on the interaction | Variant
disrupting interaction strength | M1032R

Variants of: B2
Conditions: with homez_human HOMEZ

effect of a mutation on the interaction | Variant
disrupting interaction strength | E295K

Variants of: B3
Conditions: with creb3_human CREB3, O43889
Sequence of creb3_human CREB3, O43889 (O43889 whole entry): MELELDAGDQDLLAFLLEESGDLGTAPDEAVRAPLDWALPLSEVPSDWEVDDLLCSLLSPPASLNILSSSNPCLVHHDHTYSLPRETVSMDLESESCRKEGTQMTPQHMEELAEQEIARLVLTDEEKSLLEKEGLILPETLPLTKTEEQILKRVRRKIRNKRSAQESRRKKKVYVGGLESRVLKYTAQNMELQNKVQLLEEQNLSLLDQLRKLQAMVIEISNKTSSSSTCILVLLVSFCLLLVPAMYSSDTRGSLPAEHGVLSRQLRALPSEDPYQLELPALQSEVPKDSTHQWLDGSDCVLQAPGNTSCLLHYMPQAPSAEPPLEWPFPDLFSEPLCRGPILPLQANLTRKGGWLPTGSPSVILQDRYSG

effect of a mutation on the interaction | Variant
with no effect | V42M

Variants of: B4
Conditions: with aen_human AEN

effect of a mutation on the interaction | Variant
with no effect | I343F

Variants of: B5
Conditions: with CCDC102B

effect of a mutation on the interaction | Variant
with no effect | E202K
